This passage reports EC50 results from patent US20210324050A1 (published 2021).

The target of assay [1] is GII.6 (norovirus GII.6). Description: VLP-PGM blockade.
For the next assay, the target named is GII.4 (UniProt P54635 1-538). Put plainly: VLP-PGM blockade.
Another assay concerns the target GII.6 Protruding (norovirus GII.6). Description: ELISA.
A further assay has as its target GII.17 Protruding (norovirus GII.17). Put plainly: ELISA.
In another assay the target is GII.4 Protruding. Put plainly: ELISA.
Assay [2] has as its target GII.6 (norovirus GII.6). Description: ELISA.
The next assay has as its target GII.3 (norovirus GII.3). Put plainly: ELISA.
Another assay deals with GII.13 (norovirus GII.13). Description: ELISA.
Assay [3] concerns the target T1, GII.4 Houston 2002 VLP (UniProt P54635 1-539). Description: ELISA binding.
In assay [4] the target is T1, GII.4 Houston 2002 VLP. Description: VLP blockade.
A further assay addresses T2, Shell domain (UniProt P54635 1-221).
T2 chain: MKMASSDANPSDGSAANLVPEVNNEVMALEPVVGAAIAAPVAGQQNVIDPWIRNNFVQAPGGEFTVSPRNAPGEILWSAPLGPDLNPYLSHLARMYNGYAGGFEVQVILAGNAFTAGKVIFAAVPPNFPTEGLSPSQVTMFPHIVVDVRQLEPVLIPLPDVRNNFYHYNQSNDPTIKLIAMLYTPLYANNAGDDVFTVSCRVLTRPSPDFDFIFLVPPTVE
Description: ELISA.

For a further assay, the target named is Protruding domain. Description: ELISA.
Assay [5] addresses GII.6 (AF414410) VLPs (norovirus GII.6). Description: ELISA.
A further assay addresses GI.2 (AF435807) VLPs (norovirus GI.2). Description: ELISA.
The target of assay [6] is GII.6 (AF414410) VLPs (norovirus GII.6). Put plainly: VLP-PGM blockade.
The next assay has as its target T3, GI.1 (M87661) VLPs (UniProt Q83884 1-530; Q83885 1-212).
T3 VP1: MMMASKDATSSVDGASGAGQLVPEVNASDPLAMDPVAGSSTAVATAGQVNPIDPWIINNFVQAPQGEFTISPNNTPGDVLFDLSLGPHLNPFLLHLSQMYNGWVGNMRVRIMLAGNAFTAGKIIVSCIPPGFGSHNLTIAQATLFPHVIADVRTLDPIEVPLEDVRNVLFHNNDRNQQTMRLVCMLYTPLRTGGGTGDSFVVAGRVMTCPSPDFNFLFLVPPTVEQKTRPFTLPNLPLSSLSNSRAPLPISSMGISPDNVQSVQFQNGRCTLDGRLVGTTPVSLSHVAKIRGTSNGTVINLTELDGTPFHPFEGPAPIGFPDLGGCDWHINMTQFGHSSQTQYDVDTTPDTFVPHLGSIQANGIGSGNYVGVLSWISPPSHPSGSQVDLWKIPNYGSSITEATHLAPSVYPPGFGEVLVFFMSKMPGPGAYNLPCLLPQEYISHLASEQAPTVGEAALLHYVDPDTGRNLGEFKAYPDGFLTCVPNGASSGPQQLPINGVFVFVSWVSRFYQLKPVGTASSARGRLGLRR
T3 VP2: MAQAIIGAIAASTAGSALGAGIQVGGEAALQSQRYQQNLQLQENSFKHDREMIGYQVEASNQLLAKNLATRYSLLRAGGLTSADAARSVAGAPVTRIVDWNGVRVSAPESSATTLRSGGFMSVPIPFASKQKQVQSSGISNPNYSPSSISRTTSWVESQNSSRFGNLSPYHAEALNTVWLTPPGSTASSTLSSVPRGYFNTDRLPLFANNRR
Put plainly: ELISA.

Another assay concerns the target GI.3 Shell (norovirus GI.3). Description: ELISA.
The target of a further assay is GII.17 Shell (norovirus GII.17). Description: ELISA.
The target in another assay is GI.3 Protruding (norovirus GI.3). Put plainly: ELISA.
The target of a further assay is GII.6 Shell (norovirus GII.6). Put plainly: ELISA.
The next assay concerns the target GI.3 (norovirus GI.3). Description: ELISA.
Another assay deals with GII.17 (norovirus GII.17). Description: ELISA.

B1: 232A.2 (antibody, V domains shown)
VH: QVQLKQWGAGLLKSSETLSLTCAFNGNSFGAFYWSWIRLSPGKGLEWIGEVNYLGGADYNPSLKSRVTMSADTSKRQFSLSLKSVTAADTGVYFCARGRPHDYSPGSYSRPRRYYGLDVWGQGTTVTVSS
VL: EIVLTQSPATLSLSPGDSATLSCRASQAVSTTYLAWYQQTRGQAPRLLIHGTYTRAIGIPDKFSGTGSGTDFTLTISGLAPEDFAVYYCQQYSSSPYTFGQGTKIEIT
For the molecule B1, the EC50 with GII.6 [1] is 20 nM; in the assay with GII.4, 115 nM; with GII.6 Protruding, 2 nM; with GII.17 Protruding it was 2 nM; in the assay with GII.4 Protruding, 3 nM; with GII.6 [2], 1 nM. The EC50 with GII.3 worked out at 1 nM; with GII.13 it was 2 nM; in the assay with GII.4 Houston 2002 VLP [3], 0.2 µg/mL; with GII.4 Houston 2002 VLP [4] it was 5.4 µg/mL; with Shell domain, 38.1 µg/mL; with Protruding domain it was 0.4 µg/mL.

B2: NORO-156.3 (antibody, V domains shown)
VH: QVQLQQWGAGLLKPSETLSLTCAVYGGSFSGYYWSWIRQPPGKGLEWIGEINHSGSTNYNPSLKSRVTISVDTSKNQFSLKLSSVTAADTAVYYCARGLMDVWGQGTLVTVSS
VL: AIRMTQSPSSFSASTGDRVTITCRASQGISSYLAWYQQKPGKAPKLLIYAASTLQSGVPSRFSGSGSGTDFTLTISCLQSEDFATYYCQQYYSYPRTFGQGTKLEIK
With B2, the concentration giving a half-maximal response (EC50) with GII.6 (AF414410) VLPs [5] worked out at 39 nM; with GI.2 (AF435807) VLPs, 175 nM; in the assay with GII.6 (AF414410) VLPs [6], 355 nM; with GI.1 (M87661) VLPs, 42 nM.

B3: 168.2 (antibody, V domains shown)
VH: QVQLVESGGGVVQPGRSLRLSCAASGFTFSSYAMHWVRQAPGKGLEWVAVISYDGSNKYYADSVKGRFTISRDNSKNTLYLQMNSLRAEDTAVYYCARSVIGYYYYGMDVWGQGTLVTVSS
VL: QPVLTQPPSASASLGASVTLTCTLSSGYSNYKVDWYQQRPGKGPRFVMRVGTGGIVGSKGDGIPDRFSVLGSGLNRYLTIKNIQEEDESDYHCGADHGSGILFGGGTKLTVL
Consider B3, for which the EC50 came to 135 nM with GII.6 Protruding; 390 nM in the assay with GII.17 Protruding; 37 nM in the assay with GI.3 Shell; 183 nM in the assay with GII.17 Shell; 143 nM with GI.3 Protruding; 162 nM with GII.6 Shell. Moreover, the EC50 with GI.3 is 8 nM; in the assay with GII.17, 153 nM; with GII.3 it was 224 nM; in the assay with GII.13 it was 107 nM.
